# In the DeepSol protein solubility set:
# Assay: soluble on expression in E. coli; label from the status in PepcDB or PDB records
row,Sequence,soluble on expression in E. coli
1,MKIRDLLKARRGPLFSFEFFPPKDPEGEEALFRTLEELKAFRPAFVSITYGAMGSTRERSVAWAQRIQSLGLNPLAHLTVAGQSRKEVAEVLHRFVESGVENLLALRGDPPRGERVFRPHPEGFRYAAELVALIRERYGDRVSVGGAAYPEGHPESESLEADLRHFKAKVEAGLDFAITQLFFNNAHYFGFLERARRAGIGIPILPGIMPVTSYRQLRRFTEVCGASIPGPLLAKLERHQDDPKAVLEIGVEHAVRQVAELLEAGVEGVHFYTLNKSPATRMVLERLGLRPASGQP,soluble
2,MKITVFGATGNVGNRVITEALLRGHEITAVLRNNARANEFDSSVKVVIGHADNVDDVVKWSDGQDLIISATRPPQGLESQLVDTAKALLSGLAQTKVRLLLVGGAASLTVPNSNGMLVVDDTDLVPTAWRDIALACLAQHKLCQENESVDWSYISPPAVIVPGERTGIFRTGSDELLVDEQGQSTISLEDFAIALLDEAEVVKHKRKRFTVAYLEHHHHHH,not soluble
3,MKIYIQPLSVNSHTVEVLANSLPKIFNAEVFVLPASDVSLKCYNASRRQYNSTCILRMLPPIKVTLGVTGKDIYAKGMNFVFGEAELGGARAVLSVFRLTTADSELYRERVVKEAVHEIGHVLGLKHCSNNCVMRFSNSVQDVDRKPVSFCRECASKIRYLEHHHHHH,soluble
4,MKIYSQGDQAIVVSIEKNVSQRLTEDLLSLRAYLIDKSYPFITEIVATESDLMICYDARDMIKHHHIQSPFLYMKALIDSIKLEIRHHRQQLQAKYIQKQQSVNIPVIYGGEFGPDLQHLLKHLKLKLEDFVKLHTQEKYFVSMMGYSPGFPYLTGMNKKLHVNHTSEKKKFIPCGSVIMEGKKCGIVTTDTYNDWLVIGYTPVQLFFPEQQNFTLLKLGDNVTFESKDINEIELGDYKTCQSLEHHHHHH,not soluble
5,MKKDNTVFNDLQASLKQAVAIRQGKMPPSRVFKVETVDVKATREKTHMSQTEFAKAIHVSVRTLQNWEQGHRNPTGPAVALLKIVASAPDIAVRALRTA,not soluble
6,MKKEIIVYTISDSLGETSQKLLAAASAQYPDISFLNRYNFSFVTTEEELLEILKDALKDKALVVSTLVSKQLITAAKEFSERTGLLYLDLMAPFFELIQAKAGVDPIEEPGRRHQLDRAYFDKISAIEFAVKYDDGKNPQGFLDSDILLLGVSRTSKTPVSMYLANQGYRVSNLPLIPEVPLPPILEEMDPQKMIGLVCSPETLGQIRSSRLASLGLGNETSYTNVERIEQELAYAEEIFAKYGIPVIDVTAKSVEETAFLIKEKLDERN,not soluble
7,MKKFSGIIPPVSSTFHRDGTLDKKAMREVADFLINKGVDGLFYLGTGGEFSQMNTAQRMALAEEAVTIVDGRVPVLIGVGSPSTDEAVKLAQHAQAYGADGIVAINPYYWKVAPRNLDDYYQQIARSVTLPVILYNFPDLTGQDLTPETVTRLALQNENIVGIKDTIDSVGHLRTMINTVKSVRPSFSVFCGYDDHLLNTMLLGGDGAITASANFAPELSVGIYRAWREGDLATAATLNKKLLQLPAIYALETPFVSLIKYSMQCVGLPVETYCLPPILEASEEAKDKVHVLLTAQGILPV,not soluble
8,MKKGTVLNSEISSVISRLGHTDTLVVCDAGLPIPNSTARIDMALTQGVPSFMQVVDVVTREMQVEAAILATEIKQQNPQLHETLLTHLEQLQQHQGNTIKISYTTHEQFKKLTADSQAVIRSGECSPYANVILCAGVTF,not soluble
9,MKKGVHLVFILVASLLSSFSVMAQSLQASVNKTEVAKNEVINLRIMADSEVASDAIDFSVLEKDFFLGQPRYGRSSNNINGRKYQRTEWSISIAPMKEGIITIPSFSADGMKTEPIQLKVTANKSAPDLDDLFSFNMSVDNHTLYPQQSANLRMQLIIKADTRRLDNPQVV,not soluble
10,MKKIATATIATAGIATFAFAQHDADAAENNNSGYNPNDPSSYSYSYTIDQQGQYHYTWQGNWNPSNSDQGHTSNGYSNANSTNNNATQSYTTNNQGTGGKGAVSHSTSNSNVKVSTTSAPSNSNGSNSISNTSGSSNNLYTAGQCTYYVYDKVGGKIGSTWGNANNWASAAAASGYTVNNSPASGSVLQSTAGGYGHVAYVENVNSDGSINVSEMNYGQGAGVVTSRTISASEASGYNYIH,not soluble
11,MKKIHMIPAALLIGSLALVSCAPSQPTQNAQTVSSVMTETPTYTSSSRSVESTAGTIAASEEATMTLLENSSGDPGSDSGGARYSLNSLKVSEQAAANAVLKAVLNDVSYQEFADSSYLEITGTPSADGTWGISFGGPSESASVEFSDGSISFSPVDMTVPATRLPQMGAFYETLTEEQLGMLETGLAVSTVDSSQQEMLLDLVSNSIGLADTETTATAISKIRATLSETYLFGTPDGLTLALSGPHVDFEVSHQGSTAKITYRDPSTDTLTAEDRVDTASVAAAPPEVVLEHHHHHH,not soluble
12,MKKILDACCGSRMFWFDKQNDQVLFMDNRKHYEKLESGHIVAVNPNIVADFRKMPFDDNSFYHVVFDPPHLLRAGSNSWLAKKYGKLNEQTWKEDIQKGFSECMRVLKPNGTLVFKWNEDQIKLSEILSIIDYEPLYGNKRAKTHWLVFMKESEENESNGLEHHHHHH,not soluble
13,MKKLIVDLDGTLTQANTSDYRNVLPRLDVIEQLREYHQLGFEIVISTARNMRTYEGNVGKINIHTLPIITEWLDKHQVPYDEILVGKPWCGHDGFYIDDRAVRPSEFASMNLEEIHQLFEKEKSCS,soluble
14,MKKLLSACLILFTVVCSAYAADEKEAAPAAEYAYYGFEPEIVTNYISNRKKLGFVKISVELMVKSPDDLVIVERHDPLLRAAIIEVLGNQAEEKVKSLTGREEIRRECFDMVNNLLTKEAGKPLVVNLLFTSYLYD,not soluble
15,MKKLLSSDRIKAEALRLGFSACGLAPAEAVDETVATAFRQWLADGCQAEMAYMQNYEDKRLDPRLLVEGARTVISVALNYYPAKKLPEGEYQIAWYAYGKDYHDVMKRKLKELFEFIEKEVSFSEETDSTIASTNNIGTYTENYASAPQAPVSQTSASPLQGRIFCDTAPILERYWAWRTGLGWIGKNTHLIIPHAGSCFFLGEIILDREADNYDSPQRNQCGSCTRCLDACPTKALEAPFRLNSERCLSYLTIEYRGELSLNTGKKMGNKIYGCDECLKACPWNRFATPCRTAEFQPSPSLLSMKKDDWHSLSEEQYKTIFKGSAVKRAKYSGLMRNIKIIK,not soluble
16,MKKMLVLLFVCLLVLAGCSSKSEPQGGGAAKKAEPKVMKMAVATSKDRSLTKGLYKFAEIVEKETNGSIKVEVYPDGQLGGDVAVFEALKMGTIQGSTMSTGPIASFAPRIGVLDLPFLFKDRETAYKVLDGKIGQDLLNDLPSVGVIGLNYWENGFRHLTNNKREVKSVDDIKGLKIRTLENDLHIDLWKELGATPVPMVFTELFTALEQHVVDGQENPVGNVAINKFYEVQKYLTKTGHVYNASPLLISKKFWDTLTDKEKDIIKKAAEEARDYQRKLNQEEDEKMFDYLKQQGMVITELSPEEKQKFVEKVQPIYQKYAPKFGQDLVNELINAGK,not soluble
17,MKKRILSAVLVSGVTLSAAASVHAEDYDSQIAATNNAISNLASQQEAAQAQVATIQSQVSTLRTQKTELEAKNAELEKVSADLESEIQELSSKIVARQDSLAKQARSAQQNNTATSYINSILNSKSISEAITRITAISKVVTANNDLLTKQESDQKELAAKQEENQAAINTIAANKSELETTEAGLTTQQAELEAAQVTLAAELATAQNEKTSLVSAKSTAESVAASTAASVAQSQAIAESEATAQVVASSEAATSVASSEVAATSEAVAQPSETPVSETSTASEAAQEPASSETSEVQPESAAPAVSEAPASVAPVATSEAAPATSEAPASVAPVATSEAAPAVSEAPAPAAETHKVSAASTPNTYPVGQCTWGVKSLAPWAGNNWGNAKNWIASAQAAGHSVGTTPVAGAIAVWPNDGGGYGHVAYVTSASGANSIQVMESNYAGNMSISNYRGTFDPTSSAHGGSVFYIYPLEHHHHHH,soluble
18,MKKSILFICLLTLASTLAKVQAQEERNHGIIWSSLHGLEYGVKAGFNIGGTSPLPLPQEIRAITGYSPNVCFAIEGNVTKWFDKDKKWGMILGLRLENKGMETKARVKNYGMEIIGDGGEHLAGNWTGKVKTKFKASYFSIPILAAYQLSPRVRLSAGPYVSFMTSGDFNGYVSDGYLRKGDPTGTKVEFKDGNTAPYDFSKDLRSFQWGMQAGAEWKAFKHLTVHADLEWGLNDIFKKEFKTITFNMYPIYLNAGFGYAF,not soluble
19,MKKSLVVCALSAAVLLSGCETVNTTSGGVVGVDRKQSMFSMVSSAEVNQSYAQSYQQTLGEASSQGVLDKTSANAKRLQVIANRLIAQAPTFRPDCAQWKWEVNLIKSDELNANCGPGGKIIFYSGLIEKLKLTDDEIAAVMGHEIAHALREHGREAMSKQYAVGAGKQIATLFGVPQETVALGDNGVNLLMTLPNSRENENEADLIGLELAARAGYNPNAAISLWNKMGQAAGGSAPPEFMSTHPASTSRIASLQAAIPKVMPLYQAAKKSLEHHHHHH,not soluble
20,MKKTTLMSAVVATLSLVGCQSTTGSSDAQPEQTSHISQAVYEVEFHAAQSFLSQASQLEQSFADFCLAPKNDVEPVQQQWHSTMLAWMALQGQERGPATALEQSWNVQFWPDKKNTTGRKMSALTKADKVWTVEEISTQSVTVQGLGALEWLLYDDASTLNTNSNVCASGVAIAENLHDKAQIIANSWAENPWKSLQKTEWESEYISLLSNQLEYSMKKLSRPLAKIGHPRPYFSESWRSETSLSNLKANLESLHQLYFANGKGLDALLRAQGKTQLADRVAYQFDMALETWPEDKSLFSALQSVDGYRLVLAQYNKLEQLKYLIHEEVAIELGVVIGFNATDGD,not soluble
21,MKKVEILKTSRPSSAGGAARPSTASPTHGAPKIAIKTRPVADDVAPTAATVIEPSQKAMKESVRFLTDFGEISDAISDLLTSSPNFNVISAIGPQGAGKSTLLSMLAGNNSRQMYREYVFRPVSREANEQSRHQTIQIDIYIVNHQIFLDCQPMYSFSIMEGLPKVRGGRFDDSTAMSDTLRLTAFLLYVSHTVLVVSETHYDKVIIDTLRVAEQIRPYLAIFRPKLAIDRKTNLVFIKTKASSIDLAPTVIREREELLRLSFQDSRWLKVSQEPFKTLIVLEEIRVRREHLFEEGDEPDEAASLNEFDEQIAELREELQKNREDFTVETAAMDEKKWLDMCREVIRDKTLHKTLKEYQRAMTDGVRTHFDNGFHAERDANKFFS,not soluble
22,MKKVLLFAVVFSCSMWANAQRVTWATEAGLSAIQRTGYGECWRPSTRLGISADYNVNNMFSMKSGLYYTFRGYSVNNGGTYSNGDATWIENVSQTRHFLQVPILAKFSIHSNNSTKFFFEIGSYIGYCIKNHIDSNPYYLTMPSSGWVEGYPGVGESAEGGSNQFLYQHARNFDWGMTSAVGIENRRWTVKLQYEMSLGKESKNDNIGVNYNSLTLSVGYKLNVKQ,not soluble
23,MKKVQTPLFQGITENEWNEMQNCSCMRQQSFEKNELIFRMGESVREIGIVLTGSVNIENVDLWGNKSLLSNISAGQVFAETYAFCQEPLMVNAVAAEYTNLLFLNLETLMQPRYKDTLWTDKIMQNLLRISIYKNLILSNRIFCTTPKTIRGRLLIYLSSQASKAESTVFQISFNRQELADYLNLDRSALSKELGKMRDEGILEFRKNQFVLHQLPE,not soluble
